# Experimental data published in PMC7337904.
# Legend:
# [1] = target: AvaII restriction endonuclease (wild type) (UniProt Q8YYB7); assay: EMSA; conditions: EMSA: 20 mM Tris-acetate pH 7.9, 50 mM K-acetate, 10 mM CaCl2 (replacing Mg-acetate), 1 mg/ml BSA, 37 C 30 min; 10 pmol duplex; 8% native PAGE in TBE or TB + …
# [2] = target: AvaII restriction endonuclease (Anabaena variabilis); assay: crystal structure; three crystal forms: AvaII alone, with partially cleaved dsDNA, and with RNA/DNA heteroduplex; protein in 50 mM Tris-HCl pH 7.4, 0.2 M NaCl, 5 mM CaCl2, 1 mM DTT, 5% glycerol; sitting drops at 18°C
Substance,binding signal (fold weaker than dsDNA) [1],stoichiometry N [2]
"41-nt RNA/DNA heteroduplex, GGACC in RNA or DNA strand",100,–
AvaII restriction endonuclease (enzyme),–,2
